The text below walks through data of publication PMC2839002.

In this test the target is YFP-SmB′ (UniProt P14678). Nature of the test: co-IP.

In turn, “coilin, endogenous in HeLa (from UniProt P38432 1-576) (natural protein)” gave a fold coilin recovered with anti-GFP relative to NMS of 4.5 fold.
